Results taken from patent US11261232B2, “TNFRSF14 / HVEM proteins and methods of use thereof” (MEMORIAL SLOAN KETTERING CANCER CENTER, priority 2015, dated 2022).

Legend:
[1] = system: MYC/BCL2 double positive murine lymphoma cells; experiment: In vivo treatment of engrafted myc-bcl2 murine lymphomas by intratumoral injection; parameters: species or system J:Nu nude mice
Method: (§1) FIG. 7A-H. The solHVEM (either Leu39-Va1202 or Pro37-Va1202) protein restores tumor suppressive effects of HVEM.
FIG. 20. sTNFRSF14 inhibits tumor growth in vivo. Xenograft myc-bc12 lymphomas were grown in the flanks of mice. When the tumors reached a volume of approximately 0.5 cm^3 mice were treated every other day by intra-tumoral injection in the flanks with 20 ug/ml of sTNFRSF14diluted in PBS. The control (vehicle) animals were treated with PBS. Tumors were weighed and volumes were measured twice weekly.
FIG. 21. sTNFRSF14 decreases lymphoma growth in a xenograft model. 5 million myc-Bcl2 cells were mixed with Matrigel and injected subcutaneously into the flanks of mice J:Nu Nude (Foxn1 nu/Foxn1 nu) mice. Animals were sacrificed according to IUCAC protocols. Upon sacrifice tumors were weighed and measured.
FIG. 22. Exogenous administration of sTNFRSF14 suppresses mouse lymphoma xenografts. Animals were sacrificed on day day 11 and the xenografted tumors were excised from the flanks of the mice. The tumors from each flank—treated (sTNFRSF14) and untreated (vehicle) were weighed. Bars represent the average of n=4 mice.
FIG. 24. Immunohistochemical analysis of xenograft tumors. Pathological analysis of sTNFRSF14 treated and vehicle treated mouse lymphomas. Tumors were excised from the flanks of the animals and fixed in 4% paraformaldehyde overnight. The tumors were sectioned and stained via IHC for particular tumor markers. Representative staining for HE, TUNEL, and Ki67 is shown.
(§2) Building on these findings, experiments were performed to test whether solHVEM would have any single agent activity against lymphomas. First, the expression of the BTLA receptor was characterized across a panel of human and mouse lymphoma (mostly DLBCL) cell lines. […] Next, experiments were performed to test if solHVEM had any effect on established BTLA^hi lymphomas in vivo. Briefly, aggressive MYC/BCL2 double positive murine lymphoma cells that express BTLA (BTLA^hi) were transplanted into the flanks of J:Nu nude mice and mice were treated with 20 μg of solHVEM or vehicle (PBS) every three days for a total four times once the engrafted tumors reached a volume of ˜50 mm3. […] Similar results were obtained both in vitro and in vivo with a different soluble HVEM molecule consisting of the extracellular region from amino acids Pro37 to Va1202 (SEQ ID NO. 6).
Transplant and treatment studies were generated as previously described (Schatz et al., 2011). In summary, subcutaneous injection of one million myc-bcl2 mouse lymphoma cells combined with Matrigel (BD) in the right and left flanks of mice J:Nu Nude (Foxn1 nu/Foxn1 nu). Once tumors reached 75-mm3 mice were treated every three days by intra tumor injection with 20 m of sHVEM diluted in PBS (right flank) or with vehicle control (left flank). Tumor sizes were measured and recorded every three days. Tumors were weighed after the animals were sacrificed and tumors excised.
To study the effects of the sTNFRSF14 polypeptide in vivo, five (5) million myc-bc12 cells were injected into both the right and left flanks of nude mice. Upon formation of palpable tumors treatment was commenced. The treatment comprise injecting mice intra-tumorally with either 20 ug of sTNFRSF14 on the right flank or vehicle on the left flank.

DOHH2 cells = experiment: BTK, SYK and ERK activation in anti-IgG-stimulated DOHH2 cells; assay type: cell-based, human
Method: as §1
FIG. 14A-E. Effect of solHVEM (either Leu39-Va1202 or Pro37-Va1202) on murine and human FL B cells. FIG. 14A and FIG. 14B, Quantification of pSYK levels in DOHH2 lymphoma cells that were stimulated with anti-IgG in the presence or absence of Pro37-Va1202 solHVEM (5 μg/ml) (* indicated p<0.01); representative FACS measurement in (FIG. 14B) FIG. 14C, FACS analysis of BTLA expression in a panel of lymphoma lines including murine myc/bc12 lymphomas and human lines (DOHH2, Su-DHL6, Granta, Ly10); FIG. 14D, representative pictures of tumors from mice; FIG. 14E, tumor weight of mouse tumors (n=3, p<0.01).
FIG. 15A-B. sTNFRSF14 opposes B cell receptor signaling in lymphoma B cells by decreasing P-BTK. A B-cell lymphoma cell line (DOHH2) was pre-treated for one hour with the soluble ectodomain of TNFRSF14 (sTNFRSF14) Pro 37-Val 202 (5 ug/ml) or the BTK inhibitor Ibrutinib (10nmM) and then stimulated for 5 mins at 37° C. with anti-IgG molecule. The cells were subsequently fixed and permeabilized and probed for pBTK expression using phospo-flow antibodies and analyzed on BD Fortessa. FIG. 15A, Representative FACS plots. FIG. 15B, Quantification of mean fluorescence intensity of phospho-BTK after treatment with vehicle or drug.
FIG. 16A-B. sTNFRSF14 opposes B-cell receptor signaling in lymphoma B cells by decreasing P-SYK. A B-cell lymphoma cell line (DOHH2) was pre-treated for one hour with the soluble ectodomain of TNFRSF14 (sTNFRSF14) Pro37-Val 202 (5 ug/ml) or the BTK inhibitor Ibrutinib (10nmM) and then stimulated for 5 mins at 37° C. with anti-IgG molecule. The cells were subsequently fixed and permeabilized and probed for pSYK expression using phospo-flow antibodies and analyzed on a BD Fortessa. FIG. 16A, Representative FACS plots. FIG. 16B, Quantification of mean fluorescence intentisty of phospho-SYK after treatment with vehicle or drug.
as §2
For phospho-BTK, phospho-Syk staining, cells were pretreated for 60 min with either 5 μg/mL of sHVEM (R&D Systems) or 10 ng/mL Ibrutinib (ChemieTek PCI-32765) at 37° C. Cells were fixed by adding equal volume of formaldehyde directly to the cells. Cells were incubated for 10 minutes at room temperature, washed 2× in PBS and the residual cells were permeabilized in 1 mL of ice cold methanol (100%) for 30 min on ice. Cells were then washed twice and stained with the phospho-BTK (Bd Biosciences clone N35-88) and phospho-Syk (Bd Biosciences clone 17 A/P-Zap70) and analyzed on BD LSRFortessa. […]

[2] = 20 μg intratumoral every three days
[3] = DOHH2 (BTLAhi, HVEM deleted), 10 μg/ml
[4] = compared to vehicle-treated tumors

Molecule: solHVEM: Leu39-Val202 soluble HVEM ectodomain polypeptide of SEQ ID NO. 8
- ERK inhibition in tumors by immunoblot [1, 2]: ERK inhibition
- apoptosis by TUNEL stain in tumors [1, 2]: abundant apoptosis
- tumor growth ([1]; 20 μg intratumoral every three days, four times, n=4, p<0.01): prevented any further tumor growth
- ERK activation (DOHH2 cells; [3]): readily blocked
- SYK activation (DOHH2 cells; [3]): readily blocked

B1: sTNFRSF14: Pro37-Val202 soluble HVEM ectodomain polypeptide of SEQ ID NO. 6 (protein, listed as Homo sapiens)
chain: PALPSCKEDEYPVGSECCPKCSPGYRVKEACGELTGTVCEPCPPGTYIAHLNGLSKCLQCQMCDPAMGLRASRNCSRTENAVCGCSPGHFCIVQDGDHCAACRAYATSSPGQRVQKGGTESQDTLCQNCPPGTFSPNGTLEECQHQTKCSWLVTKAGAGTSSSHWV
- tumor growth ([1]; 20 ug intra-tumoral, right flank, vehicle left flank): near complete growth delay
- tumor weight ([1]; 11 days after treatment initiation, average, 20 ug intra-tumoral): 0.75 grams
- TUNEL staining in tumors [1, 4]: higher levels
- levels of phosphorylated ERK in tumors [1, 4]: reduced levels
- proliferation marker Ki67 in tumors [1, 4]: decrease
- BTK activation (DOHH2 cells; [3]): readily blocked
- activation (phosphorylation) of BTK (DOHH2 cells; DOHH2, one hour pre-incubation, 5 ug/ml, anti-IgG): effectively blocked
- levels of phosphorylated SYK (DOHH2 cells; DOHH2, one hour pre-treatment, 5 ug/ml, anti-IgG): inhibited
